Patent US20240384250A1, “FIBROBLAST GROWTH FACTOR 23 MODULATING COMPOUNDS” (THE UAB RESEARCH FOUNDATION, priority 2021, published 2024)

T1: FGFR1c (Homo sapiens, UniProt P11362)
T1 construct: Fc-coupled FGFR ectodomains were immobilized on protein A/G beads; purchased R&D Systems 658FR050
T1 sequence (P11362 22-376 limits assumed): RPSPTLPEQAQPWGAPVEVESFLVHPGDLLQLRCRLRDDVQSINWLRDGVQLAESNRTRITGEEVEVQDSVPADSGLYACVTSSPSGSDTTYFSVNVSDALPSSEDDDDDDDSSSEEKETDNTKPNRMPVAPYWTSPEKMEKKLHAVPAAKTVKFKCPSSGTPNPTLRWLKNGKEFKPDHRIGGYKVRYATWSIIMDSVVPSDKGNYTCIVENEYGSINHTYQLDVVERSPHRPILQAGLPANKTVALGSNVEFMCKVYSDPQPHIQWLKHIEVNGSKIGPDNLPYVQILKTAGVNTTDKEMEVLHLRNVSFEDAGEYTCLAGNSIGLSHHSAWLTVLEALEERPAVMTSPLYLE

T2: FGF23 (Homo sapiens, UniProt Q9GZV9)
T2 construct: purchased R&D Systems 2604FG025/CF (human) or 2629FG025/CF (mouse)
T2 sequence (Q9GZV9 25-251): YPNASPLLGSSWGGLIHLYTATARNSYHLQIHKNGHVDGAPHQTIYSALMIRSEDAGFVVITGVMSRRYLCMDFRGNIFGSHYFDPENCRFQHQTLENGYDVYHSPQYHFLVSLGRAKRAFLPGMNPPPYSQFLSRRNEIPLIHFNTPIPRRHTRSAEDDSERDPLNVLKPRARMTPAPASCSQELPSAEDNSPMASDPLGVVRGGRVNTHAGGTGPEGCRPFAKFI


Tests used:
[1] = tested on: phosphorylated ERK in HEK293T cells; test: ERK phosphorylation in serum-starved HEK293 cells (Western blotting); format: cell-based, human; settings: FGF 1.1 nM for 10 minutes, absence of sKL
Description: The sample (20 μl) was loaded onto Mini-PROTEAN TGX Precast Gel 4-20% for experiments with <9 samples (4568094, Bio-Rad) or Criterion TGX Precast Gel 4-20% (5678094, Bio-Rad) for experiments with >9 samples. Gels were run in 1× Tris/Glycine/SDS buffer (1610732, Bio-Rad) at 150 V and stopped when the sample dye reached the end of the gel. Gels were removed and electrotransferred via a semi-dry cassette (1703940, Bio-Rad) in I× Tris/Glycine buffer (1610734, Bio-Rad) with 20% methanol. Gels were transferred onto polyvinylidene diflouride membranes (IPVH00010, Millipore) at 20 V for 1 hour. Membranes were then blocked in 5% dried milk with 0.5% Tween 20 diluted in Tris-buffered saline (TBST; pH 7.5) for 1 hour and probed with antibodies against specific antigens at 1:1000 in TBST with 5% dried milk. Blots were washed 3× for 5 minutes in TBST and probed with HRP-coupled secondary antibodies against specific species at 1:10,000 in TBST with 5% dried milk. Membranes were imaged on the SRX-101A X-ray film developer (Konica Minolta).
To determine the cellular activity of paracrine FGFs, the activation/phosphorylation of ERK in HEK293 cells after treatment was studied. HEK293 cells were seeded in 6-well plates in DMEM (26140079, Gibco) supplemented with I× Pen/Strep (15140122, Gibco) and 10% FBS (26140079, Gibco) and grown for 48 hours. Upon reaching 80% confluence, cells were serum starved overnight in DMEM and 1× Pen/Strep without FBS. The medium was changed, and cells were treated with sKL at 2 μg/ml or vehicle (sKL elution buffer: 25 mM Tris ph 8.0, 500 mM NaCl) for 15 minutes. Cells were then treated with various FGFs at 1.1 nM for 10 minutes. Cells were lysed in 200 μl of RIPA with the addition of a protease inhibitor (11836153001, Roche) and phosphatase inhibitors (P5726 and P0044, Sigma-Aldrich) for 30 minutes. The mixture was then centrifuged at 20,000 g for 60 minutes to remove all cell debris. One hundred microliters of 1× Laemmli sample buffer (1610737, Bio-Rad) with 1.42 M 2-mercaptoethanol was added, and samples were boiled for 5 minutes. Twenty microliters of samples was loaded onto 12% SDS-PAGE gels and analyzed using Western blotting for total and phosphorylated ERK.

[2] = molecular target: T1, FGFR1c; test: Plate-based binding assay, FGFR1c coated, FLAG-sKL detected with anti-FLAG HRP; settings: purified protein
Description: (§1) Proteins were coated on 96-well plates (MaxiSorp; 439454, Thermo Fisher Scientific), and proteins were added to wells in 100 μl of enzyme-linked immunosorbent assay (ELISA) coating buffer (E107, Bethyl Laboratories) with a lid placed overtop and incubated at 4° C. overnight. Plates were washed 5× with 350 μl of assay buffer (50 mM Tris [pH 7.4], 200 mM NaCl, 0.01% Tween 20) on a 50 TS microplate washer (BioTek). Plates were blocked for 1 hour in 200 μl of assay buffer with 0.5% BSA. Plates were washed as before, and proteins were incubated on plates in 100 μl of assay buffer with 0.5% BSA. Proteins or heparin was incubated in orders described in the respective figure legends. Assays using FLAG-tag-based detection were incubated with anti-FLAG coupled to HRP at 1:20,000, and assays using Fc detection were incubated with anti-human Fc coupled to HRP at 1:10,000. Plates were washed as above, and 100 μl of 3,3′,5,5′-tetramethylbenzidine (TMB) substrate (E102, Bethyl Laboratories) was added for 15 to 20 minutes until positive wells developed a dark blue color. Reactions were stopped with ELISA stop solution (E115, Bethyl Laboratories) and analyzed using the Synergy HI plate reader (BioTek) at 450 nm wavelength. […] As a control to remove background absorbance values, wells were coated with an equal amount of BSA to match the amount of protein coated in experimental wells and treated the same as experimental wells. To study the effects of sKL on the binding between paracrine FGFs and FGFRs, plates were run as above except coated with paracrine FGFs. Fc-FGFR1 was preincubated with sKL or vehicle for 60 minutes, and then the combination was added to wells and the assay was run as before.

[3] = molecular target: T2, FGF23; test: Plate-based binding assay, FGF23 coated, FLAG-sKL detected with anti-FLAG HRP; settings: 100 ng FGF23 coated
Description: as §1

Row | Molecule | ERK phosphorylation induced by FGF [1] | binding affinity for FGFR1c compared with wildtype sKL [2] | FGF23 binding of sKL variants in HEK293 cell media compared with wildtype sKL [3]
1 | FGF5: recombinant human FGF5 from R&D Systems (protein) EKRLAPKGQPGPAATDRNPRGSSSRQSSSSAMSSSSASSSPAASLGSQGSGLEQSSFQWSPSGRRTGSLYCRVGIGFHLQIYPDGKVNGSHEANMLSVLEIFAVSQGIVGIRGVFSNKFLAMSKKGKLHASAKFTDDCKFRERFQENSYNTYASAIHRTEKTGREWYVALNKRGKAKRGCSPRVKPQHISTHFLPRFKQSEQPELSFTVTVPEKKKPPSPIKPKIPLSAPRKNTNSVKYRLKFRFG | induced ERK phosphorylation | – | –
2 | FGF8b: recombinant human FGF8b from R&D Systems (protein) QVTVQSSPNFTQHVREQSLVTDQLSRRLIRTYQLYSRTSGKHVQVLANKRINAMAEDGDPFAKLIVETDTFGSRVRVRGAETGLYICMNKKGKLIAKSNGKGKDCVFTEIVLENNYTALQNAKYEGWYMAFTRKGRPRKGSKTRQHQREVHFMKRLPRGHHTTEQSLRFEFLNYPPFTRSLRGSQRTWAPEPR | induced ERK phosphorylation | – | –
3 | sKL-N694Q: sKL variant with glycosylation site Asn694 substituted by Gln (protein, left off: small tags and cut ends, sKL variant with glycosylation site Asn694 substituted by Gln) EPGDGAQTWARFSRPPAPEAAGLFQGTFPDGFLWAVGSAAYQTEGGWQQHGKGASIWDTFTHHPLAPPGDSRNASLPLGAPSPLQPATGDVASDSYNNVFRDTEALRELGVTHYRFSISWARVLPNGSAGVPNREGLRYYRRLLERLRELGVQPVVTLYHWDLPQRLQDAYGGWANRALADHFRDYAELCFRHFGGQVKYWITIDNPYVVAWHGYATGRLAPGIRGSPRLGYLVAHNLLLAHAKVWHLYNTSFRPTQGGQVSIALSSHWINPRRMTDHSIKECQKSLDFVLGWFAKPVFIDGDYPESMKNNLSSILPDFTESEKKFIKGTADFFALCFGPTLSFQLLDPHMKFRQLESPNLRQLLSWIDLEFNHPQIFIVENGWFVSGTTKRDDAKYMYYLKKFIMETLKAIKLDGVDVIGYTAWSLMDGFEWHRGYSIRRGLFYVDFLSQDKMLLPKSSALFYQKLIEKNGFPPLPENQPLEGTFPCDFAWGVVDNYIQVDTTLSQFTDLNVYLWDVHHSKRLIKVDGVVTKKRKSYCVDFAAIQPQIALLQEMHVTHFRFSLDWALILPLGNQSQVNHTILQYYRCMASELVRVNITPVVALWQPMAPNQGLPRLLARQGAWENPYTALAFAEYARLCFQELGHHVKLWITMNEPYTRQMTYSAGHNLLKAHALAWHVYNEKFRHAQNGKISIALQADWIEPACPFSQKDKEVAERVLEFDIGWLAEPIFGSGDYPWVMRDWLNQRNNFLLPYFTEDEKKLIQGTFDFLALSHYTTILVDSEKEDPIKYNDYLEVQEMTDITWLNSPSQVAVVPWGLRKVLNWLKFKYGDLPMYIISNGIDDGLHAEDDQLRVYYMQNYINEALKAHILDGINLCGYFAYSFNDRTAPRFGLYRYAADQFEPKASMKHYRKIIDSNGFPGPETLERFCPEEFTVCTECSFFHTRKS | – | does not affect | increased FGF23 binding
